T1: human NMI (N-myc Interacting protein), recombinant protein (human, UniProt Q13287 1-307, limits assumed)
T1 construct: Gene ID: 9111; also called hNMI; antigen
T1 sequence (looked up): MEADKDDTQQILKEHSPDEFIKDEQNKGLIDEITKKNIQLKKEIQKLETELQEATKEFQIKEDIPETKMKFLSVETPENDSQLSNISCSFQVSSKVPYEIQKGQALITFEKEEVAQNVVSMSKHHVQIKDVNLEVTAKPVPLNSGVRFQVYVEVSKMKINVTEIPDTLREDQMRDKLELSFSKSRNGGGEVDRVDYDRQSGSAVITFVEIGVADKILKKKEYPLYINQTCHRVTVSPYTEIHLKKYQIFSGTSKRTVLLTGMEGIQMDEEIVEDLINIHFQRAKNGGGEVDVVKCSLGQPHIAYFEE


Assays:
[1] = molecular target: T1, human NMI (N-myc Interacting protein), …; assay: ELISA EC50 against parent 94C4
[2] = molecular target: T1, human NMI (N-myc Interacting protein), …; assay: ELISA, binding to hNMI
[3] = molecular target: T1, human NMI (N-myc Interacting protein), …; assay: ELISA EC50 against parent 98G10

| Binder | Fold decrease in affinity [1] [fold] | EC50 [2] [nM] | Fold decrease in affinity [3] [fold] |
| --- | --- | --- | --- |
| 94C4 mutant A32K (VH) (antibody, V domains shown) VH: QSLEESGGGLVQPEGSLTLTCKASGFDFSSNKMCWVRQAPGKGLEWIACISSASSGSSGSTYYASWAKGRFTISKTSSTTVTLQMTSLTAADMATYFCARDGYDLWGPGTLVTVSS VL: QVLTQTPSSVSAAVGGTVTISCQSSPSVYNNYLSWFQQKPGQSPKLLIYRVSTLASGVPSRFSGSGSGTQFTLTISGVQCDDAATYYCAGGYDSASDTYVFGGGTEVVVK | > 500 | – | – |
| 94C4 mutant S29D (VH) (antibody, V domains shown) VH: QSLEESGGGLVQPEGSLTLTCKASGFDFDSNAMCWVRQAPGKGLEWIACISSASSGSSGSTYYASWAKGRFTISKTSSTTVTLQMTSLTAADMATYFCARDGYDLWGPGTLVTVSS VL: QVLTQTPSSVSAAVGGTVTISCQSSPSVYNNYLSWFQQKPGQSPKLLIYRVSTLASGVPSRFSGSGSGTQFTLTISGVQCDDAATYYCAGGYDSASDTYVFGGGTEVVVK | > 500 | – | – |
| 94C4 mutant D101Q (VH) (antibody, V domains shown) VH: QSLEESGGGLVQPEGSLTLTCKASGFDFSSNAMCWVRQAPGKGLEWIACISSASSGSSGSTYYASWAKGRFTISKTSSTTVTLQMTSLTAADMATYFCARQGYDLWGPGTLVTVSS VL: QVLTQTPSSVSAAVGGTVTISCQSSPSVYNNYLSWFQQKPGQSPKLLIYRVSTLASGVPSRFSGSGSGTQFTLTISGVQCDDAATYYCAGGYDSASDTYVFGGGTEVVVK | > 500 | – | – |
| 94C4 mutant D101E (VH) (antibody, V domains shown) VH: QSLEESGGGLVQPEGSLTLTCKASGFDFSSNAMCWVRQAPGKGLEWIACISSASSGSSGSTYYASWAKGRFTISKTSSTTVTLQMTSLTAADMATYFCAREGYDLWGPGTLVTVSS VL: QVLTQTPSSVSAAVGGTVTISCQSSPSVYNNYLSWFQQKPGQSPKLLIYRVSTLASGVPSRFSGSGSGTQFTLTISGVQCDDAATYYCAGGYDSASDTYVFGGGTEVVVK | > 500 | – | – |
| 94C4 mutant D101K (VH) (antibody, V domains shown) VH: QSLEESGGGLVQPEGSLTLTCKASGFDFSSNAMCWVRQAPGKGLEWIACISSASSGSSGSTYYASWAKGRFTISKTSSTTVTLQMTSLTAADMATYFCARKGYDLWGPGTLVTVSS VL: QVLTQTPSSVSAAVGGTVTISCQSSPSVYNNYLSWFQQKPGQSPKLLIYRVSTLASGVPSRFSGSGSGTQFTLTISGVQCDDAATYYCAGGYDSASDTYVFGGGTEVVVK | > 500 | – | – |
| 94C4 mutant S52K (VH) (antibody, V domains shown) VH: QSLEESGGGLVQPEGSLTLTCKASGFDFSSNAMCWVRQAPGKGLEWIACISKASSGSSGSTYYASWAKGRFTISKTSSTTVTLQMTSLTAADMATYFCARDGYDLWGPGTLVTVSS VL: QVLTQTPSSVSAAVGGTVTISCQSSPSVYNNYLSWFQQKPGQSPKLLIYRVSTLASGVPSRFSGSGSGTQFTLTISGVQCDDAATYYCAGGYDSASDTYVFGGGTEVVVK | > 500 | – | – |
| 98G10-7 (antibody, V domains shown, also called 98G10 T23K/T81Y (VH), T18R/C80P (VL)) VH: QEQLEESGGDLVKPEGSLTLTCKASGFSFSASYWICWVRQAPGKGLEWIACIYGGSSGSAYYASWAKGRFTISKTSSTTVYLQMTSLTAADTATYFCARAGYYNYGSAGDIYPSSFKLWGPGTLVTVSS VL: DIVMTQTPASVEAAVGGRVTINCQASQSISTALAWYQQKPGQPPKLLIYTASKVASGVPSRFSGSGSGTQFTLTISDLEPADAATYYCQNYYYSSSSITFGGGTEVVVK | – | 0.133 | 0.81 |
| 98G10-9 (antibody, V domains shown, also called 98G10 T23K/T81Y (VH), T18R/Q70D/C80P (VL)) VH: QEQLEESGGDLVKPEGSLTLTCKASGFSFSASYWICWVRQAPGKGLEWIACIYGGSSGSAYYASWAKGRFTISKTSSTTVYLQMTSLTAADTATYFCARAGYYNYGSAGDIYPSSFKLWGPGTLVTVSS VL: DIVMTQTPASVEAAVGGRVTINCQASQSISTALAWYQQKPGQPPKLLIYTASKVASGVPSRFSGSGSGTDFTLTISDLEPADAATYYCQNYYYSSSSITFGGGTEVVVK | – | 0.119 | 0.72 |
| 98G10-12 (antibody, V domains shown, also called 98G10 T75D (VH)) VH: QEQLEESGGDLVKPEGSLTLTCTASGFSFSASYWICWVRQAPGKGLEWIACIYGGSSGSAYYASWAKGRFTISKDSSTTVTLQMTSLTAADTATYFCARAGYYNYGSAGDIYPSSFKLWGPGTLVTVSS VL: DIVMTQTPASVEAAVGGTVTINCQASQSISTALAWYQQKPGQPPKLLIYTASKVASGVPSRFSGSGSGTQFTLTISDLECADAATYYCQNYYYSSSSITFGGGTEVVVK | – | 0.0746 | 0.45 |

Other lines, results leading:

| Fold decrease in affinity [1] [fold] | EC50 [2] [nM] | Fold decrease in affinity [3] [fold] | Binder |
| --- | --- | --- | --- |
| > 500 | – | – | 94C4 mutant D97K (VL) (antibody, V domains shown) VH: QSLEESGGGLVQPEGSLTLTCKASGFDFSSNAMCWVRQAPGKGLEWIACISSASSGSSGSTYYASWAKGRFTISKTSSTTVTLQMTSLTAADMATYFCARDGYDLWGPGTLVTVSS VL: QVLTQTPSSVSAAVGGTVTISCQSSPSVYNNYLSWFQQKPGQSPKLLIYRVSTLASGVPSRFSGSGSGTQFTLTISGVQCDDAATYYCAGGYDSASKTYVFGGGTEVVVK |
| > 500 | – | – | 94C4 mutant D101M (VH) (antibody, V domains shown) VH: QSLEESGGGLVQPEGSLTLTCKASGFDFSSNAMCWVRQAPGKGLEWIACISSASSGSSGSTYYASWAKGRFTISKTSSTTVTLQMTSLTAADMATYFCARMGYDLWGPGTLVTVSS VL: QVLTQTPSSVSAAVGGTVTISCQSSPSVYNNYLSWFQQKPGQSPKLLIYRVSTLASGVPSRFSGSGSGTQFTLTISGVQCDDAATYYCAGGYDSASDTYVFGGGTEVVVK |
| > 500 | – | – | 94C4 mutant D101S (VH) (antibody, V domains shown) VH: QSLEESGGGLVQPEGSLTLTCKASGFDFSSNAMCWVRQAPGKGLEWIACISSASSGSSGSTYYASWAKGRFTISKTSSTTVTLQMTSLTAADMATYFCARSGYDLWGPGTLVTVSS VL: QVLTQTPSSVSAAVGGTVTISCQSSPSVYNNYLSWFQQKPGQSPKLLIYRVSTLASGVPSRFSGSGSGTQFTLTISGVQCDDAATYYCAGGYDSASDTYVFGGGTEVVVK |
| – | 0.0659 | 0.4 | 98G10-11 (antibody, V domains shown, also called 98G10 Q70D (VL)) VH: QEQLEESGGDLVKPEGSLTLTCTASGFSFSASYWICWVRQAPGKGLEWIACIYGGSSGSAYYASWAKGRFTISKTSSTTVTLQMTSLTAADTATYFCARAGYYNYGSAGDIYPSSFKLWGPGTLVTVSS VL: DIVMTQTPASVEAAVGGTVTINCQASQSISTALAWYQQKPGQPPKLLIYTASKVASGVPSRFSGSGSGTDFTLTISDLECADAATYYCQNYYYSSSSITFGGGTEVVVK |
| – | 0.106 | 0.64 | 98G10-8 (antibody, V domains shown, also called 98G10 T23K/T75D/T81Y (VH), T18R/C80P (VL)) VH: QEQLEESGGDLVKPEGSLTLTCKASGFSFSASYWICWVRQAPGKGLEWIACIYGGSSGSAYYASWAKGRFTISKDSSTTVYLQMTSLTAADTATYFCARAGYYNYGSAGDIYPSSFKLWGPGTLVTVSS VL: DIVMTQTPASVEAAVGGRVTINCQASQSISTALAWYQQKPGQPPKLLIYTASKVASGVPSRFSGSGSGTQFTLTISDLEPADAATYYCQNYYYSSSSITFGGGTEVVVK |
| – | 0.168 | 1.02 | 98G10-10 (antibody, V domains shown, also called 98G10 T23K/T75D/T81Y (VH), T18R/Q70D/C80P (VL)) VH: QEQLEESGGDLVKPEGSLTLTCKASGFSFSASYWICWVRQAPGKGLEWIACIYGGSSGSAYYASWAKGRFTISKDSSTTVYLQMTSLTAADTATYFCARAGYYNYGSAGDIYPSSFKLWGPGTLVTVSS VL: DIVMTQTPASVEAAVGGRVTINCQASQSISTALAWYQQKPGQPPKLLIYTASKVASGVPSRFSGSGSGTDFTLTISDLEPADAATYYCQNYYYSSSSITFGGGTEVVVK |
